Holding throughout (assay): AlphaScreen or HTRF; saturation binding: HEK293 cells transfected with SNAP-tagged receptor (WT or mutant) and labelled with SNAP-Lumi4-Tb, incubated with increasing concentrations of galanin-A2 in the presence or absence of 100 uM unlabeled galanin, 1 h at room temperature; HTRF ratio 665 nm/620 nm
What all share (details): one partner purified
Background: Bead proximity is the source of the signal in Alpha formats.

One assay has as its target T1, SNAP-GAL2R R184^5.35A (human, UniProt O43603 1-387, R184^5.35A, Lumi4-Tb on the SNAP tag).
T1 construct: also called R184A; source: HEK293, transfected, on cells; not shown: SNAP tag, N-terminal, kept
T1 sequence (looked up): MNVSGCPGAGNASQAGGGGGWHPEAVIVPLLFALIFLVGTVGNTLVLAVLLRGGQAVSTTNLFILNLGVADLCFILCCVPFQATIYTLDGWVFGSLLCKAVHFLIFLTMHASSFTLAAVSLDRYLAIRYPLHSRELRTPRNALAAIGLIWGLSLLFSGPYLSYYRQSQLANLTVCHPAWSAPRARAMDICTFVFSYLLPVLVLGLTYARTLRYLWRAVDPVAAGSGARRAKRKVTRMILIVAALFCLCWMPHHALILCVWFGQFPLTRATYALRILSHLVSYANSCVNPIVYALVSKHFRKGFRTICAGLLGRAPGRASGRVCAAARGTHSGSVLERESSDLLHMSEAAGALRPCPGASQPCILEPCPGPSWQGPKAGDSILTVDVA

In a further assay the target is T2, SNAP-GAL2R I256^6.55A (human, UniProt O43603 1-387, I256^6.55A, Lumi4-Tb on the SNAP tag).
T2 construct: also called I256A; source: HEK293, transfected, on cells; not shown: SNAP tag, N-terminal, kept
T2 sequence (looked up): T1 sequence (looked up) with A184R, I256A

The target of the next assay is T3, SNAP-GAL2R V259^6.58A (human, UniProt O43603 1-387, V259^6.58A, Lumi4-Tb on the SNAP tag).
T3 construct: also called V259A; source: HEK293, transfected, on cells; not shown: SNAP tag, N-terminal, kept
T3 sequence (looked up): T1 sequence (looked up) with A184R, V259A

The target in a further assay is T4, SNAP-GAL2R H252^6.51A (human, UniProt O43603 1-387, H252^6.51A, Lumi4-Tb on the SNAP tag).
T4 construct: also called H252A; source: HEK293, transfected, on cells; not shown: SNAP tag, N-terminal, kept
T4 sequence (looked up): T1 sequence (looked up) with A184R, H252A

Substitutions are numbered along the chain they refer to.

B1: galanin-A2 (full-length galanin labeled with the dye A2 on an additional cysteine at the C-terminal end) (peptide)
peptide: GWTLNSAGYLLGPHAVGNHRSFSDKNGLTSC
modifications: dye A2 on the additional C-terminal cysteine
notes: numbers count on: the mature protein; additional cysteine at the C-terminal end of the peptide, carries the dye A2; source: synthetic peptide (synthesized by Vazyme, China)
As usually defined, the Kd is the constant that tells how readily two partners part at equilibrium. B1: the Kd with SNAP-GAL2R R184^5.35A worked out at 0.286 µM; with SNAP-GAL2R I256^6.55A, 0.221 µM; with SNAP-GAL2R V259^6.58A it was 0.18 µM; with SNAP-GAL2R H252^6.51A, 0.246 µM.

(Values after paper PMC8924211 (Nature Communications, 2022).)
